From patent US20110312897

Assays:
[1] = target: T1, H3 15-31 peptide, K23 acetyl
T1 chain: APRKQLATKAARKSAPA

[2] = target: rH3 pan-acetylated with acetic anhydride
[3] = target: C-terminally 6xHIS tagged, full-length recombinant histone H3
[4] = target: T2, H3 15-31 peptide, K18 acetyl
T2 chain: APRKQLATKAARKSAPA

[5] = target: T3, H3 15-31 peptide, K18ac+K23ac
T3 chain: APRKQLATKAARKSAPA

H3 15-31 peptide, K27me2 = target: T4, H3 15-31 peptide, K27me2
T4 chain: APRKQLATKAARKSAPA

B1: recombinant mouse Cathepsin L (R&D Systems, # 1515-CY-010) (protein)
chain: TPKFDQTFSAEWHQWKSTHRRLYGTNEEEWRRAIWEKNMRMIQLHNGEYSNGQHGFSMEMNAFGDMTNEEFRQVVNGYRHQKHKKGRLFQEPLMLKIPKSVDWREKGCVTPVKNQGQCGSCWAFSASGCLEGQMFLKTGKLISLSEQNLVDCSHAQGNQGCNGGLMDFAFQYIKENGGLDSEESYPYEAKDGSCKYRAEFAVANDTGFVDIPQQEKALMKAVATVGPISVAMDASHPSLQFYSSGIYYEPNCSSKNLDHGVLLVGYGYEGTDSNKNKYWLVKNSWGSEWGMEGYIKIAKDRDNHCGLATAASYPVVN
ELISA with the H3cs.1 antibody of the cleavage product [1]: the K23ac peptide shows very little cleavage activity at H3cs.1, both alone (green) and in combination with K18ac (black) | H3 cleavage assay, immunoblot (substrate 3 against unmodified substrate 1) [2]: the acetylation of lysine residues greatly reduced cleavage of H3 by rCathepsin L at both pH 7.5 and 5.5 | H3 cleavage assay (immunoblot with HIS-HRP and H3.cs1 antibodies; mass spectrometry) [3]: recombinant mouse Cathepsin L was able to cleave recombinant histone H3 at both pH 5.5 and pH 7.4 | H3 cleavage assay with pre-activated enzyme, immunoblot with HIS and H3.cs1 antibodies [3]: pre-activated Cathepsin L cleaves rH3-HIS robustly and produces a pattern that is similar to that observed in vivo | H3 cleavage assay, immunoblot (substrate 2 against unmodified substrate 1) (rH3-HIS+K27me2): K27me2 increases H3 cleavage | ELISA with the H3cs.1 antibody of the cleavage product, against the unmodified H3 15-31 peptide [4]: acetylation at K18 (blue) also increases this activity | ELISA with the H3cs.1 antibody of the cleavage product [5]: the K23ac peptide shows very little cleavage activity at H3cs.1, both alone (green) and in combination with K18ac (black) | ELISA with the H3cs.1 antibody of the cleavage product, against the unmodified H3 15-31 peptide (H3 15-31 peptide, K27me2): K27me2 (magenta) strongly increases the ability of Cathepsin L to cleave at H3cs.1 as compared to the matched unmodified H3 15-31 peptide
